Experimental findings from patent US20090118183A1 (AFFYMAX, published 2009) are described below.

Like-named read-outs stand apart in the source and are kept apart here. Bridge positions count the residues as written; N and C are the ends. Square brackets hold non-standard residues; d marks the D form. Ends that are not written are not given here. 1Nal = N[C@@H](Cc1cccc2ccccc12)C(=O)O; Sar = CNCC(=O)O

Assay [1] deals with T1, chimeric receptor comprising the extra-cellular portion of the human EPO receptor to the intra-cellular … (human, UniProt P19235 25-250; Q99062 651-836, limits assumed).
T1 sequence (looked up): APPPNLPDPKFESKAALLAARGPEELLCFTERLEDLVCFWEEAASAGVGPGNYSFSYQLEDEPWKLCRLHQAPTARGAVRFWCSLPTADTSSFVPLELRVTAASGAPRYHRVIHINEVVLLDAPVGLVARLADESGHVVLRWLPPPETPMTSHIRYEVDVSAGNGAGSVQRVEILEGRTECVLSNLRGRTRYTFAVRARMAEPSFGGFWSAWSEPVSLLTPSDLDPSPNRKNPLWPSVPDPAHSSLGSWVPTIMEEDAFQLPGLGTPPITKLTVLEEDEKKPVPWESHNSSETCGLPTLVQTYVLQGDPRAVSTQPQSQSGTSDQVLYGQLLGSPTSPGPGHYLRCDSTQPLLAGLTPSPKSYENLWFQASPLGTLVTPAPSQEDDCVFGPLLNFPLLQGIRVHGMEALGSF
Nature of the assay: cell-based or functional assay.

Assay [2] has as its target T2, human EPO-R (human, UniProt P19235 25-508).
T2 sequence (looked up): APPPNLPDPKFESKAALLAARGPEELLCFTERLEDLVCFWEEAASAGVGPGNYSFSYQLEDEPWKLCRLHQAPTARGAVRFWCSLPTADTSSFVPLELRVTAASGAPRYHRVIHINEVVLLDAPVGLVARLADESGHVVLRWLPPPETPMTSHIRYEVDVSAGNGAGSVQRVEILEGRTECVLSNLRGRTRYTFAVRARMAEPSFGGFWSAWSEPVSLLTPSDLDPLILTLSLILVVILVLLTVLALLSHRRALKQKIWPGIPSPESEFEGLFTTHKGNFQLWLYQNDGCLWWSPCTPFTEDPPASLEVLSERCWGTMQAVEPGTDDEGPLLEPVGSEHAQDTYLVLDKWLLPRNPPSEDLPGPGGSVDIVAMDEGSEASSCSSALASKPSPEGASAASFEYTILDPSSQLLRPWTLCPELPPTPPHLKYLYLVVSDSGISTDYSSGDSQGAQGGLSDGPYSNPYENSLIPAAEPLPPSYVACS
Nature of the assay: cell-based or functional assay.

Assay [3] addresses T1, chimeric receptor comprising the …. Nature of the assay: cell-based or functional assay. The source holds these as a separate data set.
Assay [4] deals with T2, human EPO-R. Nature of the assay: cell-based or functional assay. This is another data set of the same source.
For assay [5], the target named is T3, Recombinant Human EPO R/Fc Chimera (human, UniProt P19235 25-250).
T3 construct: extracellular domain; Bought reagent (R&D Systems, catalog 963-ER); also called recombinant EPOr extracellular domain fused to the Fc portion of human IgG1; recombinant erythropoietin receptor; not shown: Fc portion of human IgG1
T3 sequence (looked up): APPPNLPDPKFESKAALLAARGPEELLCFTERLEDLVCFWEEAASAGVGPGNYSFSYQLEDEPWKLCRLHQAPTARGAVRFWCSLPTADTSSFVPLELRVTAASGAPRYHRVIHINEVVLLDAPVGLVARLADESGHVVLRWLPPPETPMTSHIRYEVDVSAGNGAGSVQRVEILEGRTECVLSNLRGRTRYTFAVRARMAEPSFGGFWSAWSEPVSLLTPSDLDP
Briefly: radioligand competition: displacement of 125I-EPO from recombinant human EPO R/Fc, Protein-G Sepharose pull-down. In general terms: In a radioligand displacement assay an active substance lowers the binding of a labelled ligand.

Assay [6] concerns the target recombinant EPO-R (produced in Chinese Hamster Ovary cells as a fusion protein to a portion of the human … (human, UniProt P05187 489-506)). Briefly: competitive binding; column headed only 'IC50 (pM)'; taken as the AQ bead proximity assay against the biotinylated peptide tracer (SEQ ID NO: 4) per paragraph 299.

B1: Peptide III (SEQ ID NO: 3) (peptide)
peptide: Ac-GGLYACHMGPIT[1Nal]VCQPLR[Sar]
modifications: disulfide 6-15; also: homodimer: C-termini joined to alpha- and epsilon-amino groups of a lysine linker carrying spacer and PEG, not shown
Turning to B1, in assay [1], the “Reporter EC50 (pM)” value worked out at 150 pM. In the assay with human EPO-R [2], the “Proliferation EC50” value was determined as 72 nM.

B2: Peptide I (SEQ ID NO: 2) (peptide)
peptide: Ac-GGLYACHMGPIT[1Nal]VCQPLR[Sar]K
modifications: disulfide 6-15; not fully specified (residue 21); printed as (AcG)GLYACHMGPIT(1-nal)VCQPLR(MeG)K; also: homodimer, Lys21 epsilon-N joined to branched tertiary amide linker carrying PEG
notes: also called Peptide 1
As for B2, the “Reporter EC50 (pM)” value in assay [3] turned out to be 195 pM. In the assay with human EPO-R [4], the “Proliferation EC50 (pM)” value turned out to be 165 pM. Further, the IC50 – broadly, the concentration at which inhibition is half-maximal – in assay [5] was determined as 0.111 nM.

B3: Peptide II (SEQ ID NO: 3) (peptide)
peptide: Ac-GGLYACHMGPIT[1Nal]VCQPLR[Sar]
modifications: disulfide 6-15; also: homodimer: C-termini joined to alpha- and epsilon-amino groups of a lysine linker carrying spacer and PEG, not shown
In the case of B3, the IC50 in assay [6] came out at 0.11 nM.
